From patent US20230255948

Biological target: GST-OPNR153A (E. coli produced mutant OPN with the arginine in the thrombin cleavage site mutated to alanine) (UniProt P10923)

## Thrombin
  thrombin cleavage (time course, 10 nM thrombin, SDS-PAGE): resistant to thrombin cleavage
